Biological target: T1, GIP receptor
T1 sequence (P48546 whole entry, species assumed, looked up): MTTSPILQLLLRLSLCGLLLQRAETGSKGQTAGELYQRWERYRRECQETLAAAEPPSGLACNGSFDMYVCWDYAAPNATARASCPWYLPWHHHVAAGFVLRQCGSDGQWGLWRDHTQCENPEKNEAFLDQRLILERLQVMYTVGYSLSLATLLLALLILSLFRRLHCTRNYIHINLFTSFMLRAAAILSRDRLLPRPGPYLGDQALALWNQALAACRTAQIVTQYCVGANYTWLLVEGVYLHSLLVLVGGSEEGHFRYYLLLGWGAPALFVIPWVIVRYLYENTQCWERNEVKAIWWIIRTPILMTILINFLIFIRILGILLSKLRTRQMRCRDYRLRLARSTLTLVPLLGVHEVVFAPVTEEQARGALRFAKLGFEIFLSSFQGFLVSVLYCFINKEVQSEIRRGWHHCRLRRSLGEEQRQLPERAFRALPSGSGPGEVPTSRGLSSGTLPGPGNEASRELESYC
Assay: cell-based or functional assay

| Substance | cAMP experimental result of GIP receptor, EC50 [nM] |
| --- | --- |
| BGM134 (Semaglutide) (peptide) | > 50 |
| BG121 (LY3298176) (peptide) | 1.79 |

From patent US12215133
